Legend:
Mouse ASGR-1 = target: T1, Mouse ASGR-1 (mouse, UniProt P34927 1-284); experiment: FACS on transfected HEK 293 cells or membrane preps on beads; binding = signal at least 2x irrelevant IgG
T1 construct: Expressed on HEK 293 cells or as membrane prep on beads; cDNA GenBank BC022106.1; also called muASGR-1; mASGR-1
T1 sequence: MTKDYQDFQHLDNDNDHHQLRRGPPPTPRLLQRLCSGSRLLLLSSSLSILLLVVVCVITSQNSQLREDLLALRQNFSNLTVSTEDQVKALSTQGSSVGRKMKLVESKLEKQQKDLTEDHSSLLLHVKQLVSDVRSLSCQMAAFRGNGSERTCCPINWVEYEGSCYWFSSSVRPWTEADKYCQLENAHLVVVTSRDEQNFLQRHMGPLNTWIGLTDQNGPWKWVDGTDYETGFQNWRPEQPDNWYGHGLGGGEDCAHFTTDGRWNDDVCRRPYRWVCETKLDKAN
Summary of the method: (§1)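 Antibodies at normalized concentrations bound 1 h at 4° C to HEK 293 cells expressing each antigen, then Alexa Fluor 647 anti-Fc plus 7-AAD 15 min at 4° C, flow cytometry; empty-vector cells as negative. Alternatively, species ASGR-1 membrane preps on streptavidin beads, antibody 1 h RT, Alexa Fluor 488 anti-Fc; FACS buffer with 1 mM CaCl2 throughout.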

Pig ASGR-1 = target: T2, Pig ASGR-1 (pig); experiment: as above
T2 construct: Expressed on HEK 293 cells or as membrane prep on beads; cDNA GenBank NM_001244458
T2 chain: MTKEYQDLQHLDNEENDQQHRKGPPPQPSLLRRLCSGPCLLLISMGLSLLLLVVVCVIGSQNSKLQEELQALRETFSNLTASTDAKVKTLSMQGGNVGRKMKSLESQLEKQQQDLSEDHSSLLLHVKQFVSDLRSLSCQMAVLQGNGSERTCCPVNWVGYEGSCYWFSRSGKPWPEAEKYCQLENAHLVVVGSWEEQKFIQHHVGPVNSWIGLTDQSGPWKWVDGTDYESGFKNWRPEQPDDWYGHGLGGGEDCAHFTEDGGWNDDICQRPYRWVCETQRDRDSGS
Summary of the method: as §1

Rat ASGR-1 [1] = target: T3, Rat ASGR-1 (rat, UniProt P02706 1-284); experiment: as above
T3 construct: Expressed on HEK 293 cells or as membrane prep on beads; cDNA GenBank NM_012503
T3 sequence: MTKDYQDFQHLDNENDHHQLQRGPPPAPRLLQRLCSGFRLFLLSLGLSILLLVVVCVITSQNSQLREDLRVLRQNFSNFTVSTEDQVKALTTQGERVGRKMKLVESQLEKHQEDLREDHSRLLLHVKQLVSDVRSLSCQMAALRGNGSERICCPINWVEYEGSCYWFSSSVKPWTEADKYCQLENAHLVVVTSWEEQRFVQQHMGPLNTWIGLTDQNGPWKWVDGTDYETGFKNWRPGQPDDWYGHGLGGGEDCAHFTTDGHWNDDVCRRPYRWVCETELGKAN
Summary of the method: as §1

Dog ASGR-1 [2] = target: T4, Dog ASGR-1 (dog); experiment: FACS on transfected HEK 293 cells or membrane preps on beads; Y = signal at least 2x irrelevant IgG
T4 construct: Expressed on HEK 293 cells or as membrane prep on beads; cDNA GenBank XM_546579
T4 chain: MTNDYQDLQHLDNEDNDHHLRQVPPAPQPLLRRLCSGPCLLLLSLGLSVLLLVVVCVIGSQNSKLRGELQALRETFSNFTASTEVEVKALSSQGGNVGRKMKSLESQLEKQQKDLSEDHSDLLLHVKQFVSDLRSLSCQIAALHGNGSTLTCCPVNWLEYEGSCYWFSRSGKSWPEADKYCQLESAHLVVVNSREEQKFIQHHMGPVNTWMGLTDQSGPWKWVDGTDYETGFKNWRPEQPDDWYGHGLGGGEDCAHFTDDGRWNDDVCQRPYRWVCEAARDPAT
Summary of the method: as §1

Dog ASGR-1 [3] = target: T4, Dog ASGR-1; experiment: FACS on transfected HEK 293 cells or membrane preps on beads; binding = signal at least 2x irrelevant IgG
Summary of the method: as §1

Rat ASGR-1 [4] = target: T3, Rat ASGR-1; experiment: FACS on transfected HEK 293 cells or membrane preps on beads; Y = signal at least 2x irrelevant IgG
Summary of the method: as §1

B1: 193E7 (antibody, V domains shown)
VH: QVQLQQWGAGLLKPSETLSLTCAVYGGSFSGYFWTWIRQPPGKGLEWIGEINHSGSTNYNPSLKSRVTISVDTSKNQFSLKLSSVTAADTAVYYCARDYGADYWGQGTLVAVSA
VL: DIQMTQSPSSLSASVGDRVTITCRASQGIRNDLGWYQQKPGKAPKRLIYSASSLQRGVPSRFSGSGSGTEFTLTISSLQPEDFATYYCLQHKRYPLTFGGGTKVEIK
notes: Tested as hybridoma supernatant at normalized concentration
binding result (Mouse ASGR-1): no binding
binding result (Pig ASGR-1): no binding
binding result (Rat ASGR-1 [1]): no binding
binding result (Dog ASGR-1 [2]): binds

B2: 22G5 (antibody, V domains shown)
VH: EVQLLESGGGLVQPGGSLRLSCAASGFTFSSYAMNWVRQAPGMGLEWVSVISRSGGYTYYADSVKGRFTISRDNSKNTLYLQMNSLRAEDTAVYYCASRLAVAGSEAFDIWGQGTLVTVSS
VL: DIQMTQSPSSLSASVGDRVTITCRASQNISSYLNWYQQKQGKAPKLLIYAASSLQNGVPSRFSGRGSGTDFTLTISSLQPEDFATYYCQQSYRTPLFTFGPGTKVDFK
notes: as for B1
binding result (Mouse ASGR-1): no binding
binding result (Pig ASGR-1): no binding
binding result (Dog ASGR-1 [3]): no binding
binding result (Rat ASGR-1 [1]): no binding

B3: 5E5 (antibody, V domains shown)
VH: QVQLVESGGGVVQPGRSLRLSCAASGFTFSNYVMHWVRQAPGKGLEWVAVIWYDGSNKYYADSVKGRFTISRDNSKNTLYLQMNSLRAEDTAVYYCTREVYSSGWYDYGMDVWGQGTTVTVSS
VL: DIQMTQSPSSLSASVGDRVTITCRASQGIRNDLGWYQQKPGKAPKRLIYAASSLQSGVPSRFSGSGSGTEFTLTISSLQPEDFATYYCLQHYSYPRTFGQGTKVEVK
notes: as for B1
binding result (Mouse ASGR-1): no binding
binding result (Pig ASGR-1): no binding
binding result (Dog ASGR-1 [3]): no binding
binding result (Rat ASGR-1 [4]): binds

B4: 54E9 (antibody, V domains shown)
VH: QVQLVQSGAEVKKPGASVKVSCKASGYTFNSYGISWVRLAPGQGLEWMGWISAYNGNTKNAQKLQGRVTMTTDTSTSTAYMELRSLRSDDTAVYYCARHDFWSGYYKGMDVWGQGTTVTVSS
VL: not shown
notes: as for B1
binding result (Mouse ASGR-1): no binding
binding result (Pig ASGR-1): no binding
binding result (Rat ASGR-1 [1]): no binding
binding result (Dog ASGR-1 [2]): binds

B5: 6G7 (antibody, V domains shown)
VH: QVQLVESGGGVVQPGRSLRLSCAASGFTFSSYGMHWVRQTPGKGLEWVAIISYVGKNKYYADSVKGRFTISRDNSKNTLYLQMNSLRAEDTAVYYCARRGNSYGGYGMDVWGQGTTVTVSS
VL: DIQMTQSPSSRSASVGDRVTITCQASQDISNYLNWCQQKPGKALKLLIYDASTLETGVPSRFSGSGSGTDFTFTISSVQPEDIATYYCQQYDNVPITFGQGTRLEIK
notes: as for B1
binding result (Mouse ASGR-1): no binding
binding result (Pig ASGR-1): no binding
binding result (Dog ASGR-1 [3]): no binding
binding result (Rat ASGR-1 [4]): binds
